Earlier results on two substances are cited in publication PMC4449261.

As a reminder, the Kd is the free concentration of one partner at which half of the binding sites on the other are occupied at equilibrium, for simple one-to-one binding.

One series addresses IL-4Rα1 (Homo sapiens) (UniProt P24394).
A further series concerns the target IL-13Rα1 (Homo sapiens) (UniProt P78552).
Sequence of UniProt P78552 (P78552 22-343): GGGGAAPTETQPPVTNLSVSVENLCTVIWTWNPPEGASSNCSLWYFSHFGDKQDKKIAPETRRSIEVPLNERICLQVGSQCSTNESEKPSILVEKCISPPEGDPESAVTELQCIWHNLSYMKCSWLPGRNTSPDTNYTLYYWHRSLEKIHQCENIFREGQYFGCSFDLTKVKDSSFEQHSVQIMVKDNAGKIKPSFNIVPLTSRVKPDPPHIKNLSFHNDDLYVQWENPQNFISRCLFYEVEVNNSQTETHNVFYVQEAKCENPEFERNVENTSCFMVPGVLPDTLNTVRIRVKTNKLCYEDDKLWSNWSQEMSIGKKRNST

Sequence of UniProt P24394 (P24394 26-232): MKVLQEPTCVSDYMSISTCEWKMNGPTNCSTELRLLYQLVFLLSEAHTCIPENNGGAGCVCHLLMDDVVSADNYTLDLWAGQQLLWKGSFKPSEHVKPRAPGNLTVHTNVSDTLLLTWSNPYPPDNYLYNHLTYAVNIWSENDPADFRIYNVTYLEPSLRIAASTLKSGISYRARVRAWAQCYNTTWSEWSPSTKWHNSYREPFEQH

Regarding IL-4 (from UniProt P05112), in the series with IL-4Rα1 (Homo sapiens), the Kd was 0.1 nM.
As for IL-13 (from UniProt P35225), the Kd with IL-13Rα1 (Homo sapiens) was 4 nM.
